# Assay: label from the status in PepcDB records
row,Sequence,protein production
1,MAAAPASDVCGGGSKKNCSGRRMSDAAPPVSSPPPRQKGLLGVVERLGNLLPEPVMIFVWLILGLMVLSAIGQALGWSASITYAGDEAPQFGELENGVLTYAASSLFSEANLARLFTEMPKTLTSFAPLGLVLVVILGAAVAERSGLFSALIRASLREAPKRILTPLVVIIGMVSHHASDAAYVVFIPLAGLLYAAVGRHPLAGIAAGFAAVSGGFAGNLTPGQFDVVLFGFTQEAARIIDPTWTMNPLGNWWYILAIVVVFTPIAWFLTDKVVEPRLGPWGGQADDALKAELAKSAVTADEKRGLKFAGLAALAIVALFAALSLIPGFTPLIDETKTGPAQLTPFYGALIAGFMMLFLAGGVAYGVGVGTVKTEGDVVNMMADGVRSVAPYIVFAFFAAHFVAMFNWSRLGPIAAIHGAETLKAMNLPAPLLLVSVLGFSSVLDLFIGSASAKWSALAPVVVPMFMLLGISPEMTTAAYRMGDSFTNLMTPLMSYFPLVLAMTRRWDPSMGVGSLLALMLPYALAFMVAGVAMTLAWVAFDWPLGPAAQVHYTPPGGLLK,failed
2,MEITDVRLRRVETDGRMKAISSITIDGEFVIHDIRVIDGNEGLFVAMPSKRTPDGEFRDIAHPINSGTRAKIQEAVLAAYEVADEPAVNEESSADESVVEEN,failed
3,MAGEKAQKKGKEKWKEKTWYTVESPPYLGSKEVTVALGEDPESMVNRIVEVPISDLTGNFKKSNEKALFRITGCEGTKCKTIFIGHYIGDDYIRRLVRRRKERIDIIEDVKTSDGSIITVKIVVVSDGKLTNTKKSEIRKALTSFIVSKGSQLSYADFVRYLIGDDSYNDMVEATKNIYPLRKIEIRKSELVSLSGMQEPQKNEPAPGGEAIAQNLEHHHHHH,not failed
4,TNLAALSLDSLVAPDTPIQFDIISPVCEDQPGQAKAFGQGGRRTNPFGESGGSTKSETEDSILHQLFIVRFLGSMEVKSDDHPDVVYETMRQILAARAIHNIFRMTESHLLVTCDCLKLIDPQTQVTRLTFPLPCVVLYATHQENKRLFGFVLRTSSGRSESNLSSVCYIFESNNEGEKICDSVGLAKQIAL,failed
5,MAEARPDSLTRSRAAKPAGEGAAFSPLYRQIKELLVQSLDRGEWKPGELIPSEIDLAARFQVSQGTVRKAVDELAAEHLLLRRQGKGTFVATHHEARVRYRFLRLAPDEEGEGGRAESRILECRRLRAPAEIARALELRAGETVVTIRRQLSMNHMPTVIDDLWLPGTHFRGLTLELLTASKAPLYGLFESEFGVSMVRADEKLRAVAASPEIAPLLGVEPGRPLLQVDRISYTYGDRPMEVRRGLYLTDHYHYRNSLN,not failed
6,MSTQTSIEWTEMTWNPIVGCTKVSPGCKHCYAENMAHRLQAMGTPGYENGFKLSLRPEKLREPLQRKKPTIYFVNSMSDLFHEKVPDHYIDQVFEVIREATQHTFQILTKRAERLADYFSKRTPPTNAWLGVSVEDKAYGVPRIDCLRRVNATIRFLSAEPLLEDLGEIDLTDIHWVIVGGESGNKARPMQQEWVDNIHRQCDVSGSAFFFKQWGGWGADGVKRSKKANGRLLNGQTWDEIPLLNLALEHHHHHH,failed
7,VDEPESMVNLAFVKNDSYEKGPDSVVVHVYVKEICRDTSRVLFREQDFTLIFQTRDGNFLRLHPGCGPHTTFRWQVKLRNLIEPEQCTFCFTASRIDICLRKRQSQRWGGLEAPAARVGGA,not failed
8,MRSKFVLFMLMSLLTGSLMANSEAQIYGYVEKATLIDQNLTLSAKLDTGAKSASLHAVNITEIEKKGIPYLRFTVPTKTGDYSFEGEYVGKVKIKVRSSETNPGLLRTTPIKRPVVLLNIKLGDKVRTIKVNLTNRKRFLYPLLLGRDAIIDFNGAVDPALTFTTKSKSPVNNEK,failed
9,MAETIQNFLTEYYSIAIPLSILINIIISLLGFIPSIFLTAINIQLFGVTNGTVISIAGEALGAIISFYIYRMGLQKFTHDKVNKYPKVERLLYVEGREAFLLVLSFRLIPFIPSSIVTLFAALGKMSLLSFSIASTIGKIPALLIEVYSAYHVMNGTNEAKWIVTIAGCIGLYYLWKKWRKK,failed
10,MKIIFSASPANRAAAYALRQAVFVEERGISADVEFDVKDTDQCEYAVLYLQPDLPITTLRLEPQADHVMRFGRVCTRKAYRGHGWGRQLLTAAEEWATQRGFTHGEIHGELTAQRFYELCGYRVTAGPYDEDGAPVVIMHKQLL,not failed
11,MKRPGAIPTVQIDNERVKVTEWRFPPGGETGWHRHSMDYVVVPMTTGPLLLETPEGSVTSQLTRGVSYTRPEGVEHNVINPSDTEFVFVEIEIKAA,not failed
12,MSNSINLGRVAVIDIGKTNAKVVVIDTGSGEEIAAEKRTNPVLRDGPYPHYDVEMLWNFILAALQRFGHEPGFDAISITTHGASAALLDGTGDLAMPVLDYEHIYAEPVQQAYRGIRPDFAETGSPQLPAGLNLGAQIHFQKTNFPDDFARVRSIVTYPQYWAGRLTGVQATETTSLGCHTDLWNPRRKSFSSLVGRLGIEHLMAPVRSAFDVLGTIRPSLAQETGLSPDMPVYCGIHDSNASLLPHLLRREGDFSVVSTGTWVVNFAIGGKADALDPARDTLLNVDALGRPVPSSRFMGGREYEMLAQQFGAATPHDIEAALGGVIEKGMMLLPSVVSGSGPFPQSASRWIADSDATGAERHAAASLYLALMTEFCLSLVERRGPIVVEGPFAGNALYLKALAAFAATDVIAMEGSTGTSAGAALLTGIKPVAGRERHFTAEDIAGLTSYRTAWQNHLT,failed
13,MKDLLKWKFVETLDFLFDMDKYGRQMLFLQERGRMKLMEGFAVEFRGDGWDNDLASYCGKIVECSWDKEKKVWVSLRIRVDKSKPNGIGTGRSVIKCIEDDLTKEVLLKEIKEIILLP,not failed
14,MALRSLVLFAALALVGCSSSPTADLVLTNGTVATLDDDHEQVEALAAADDTLLAVGSADAIDAYVGGDTRVIDLQGRLAVPGFIEGHGHYMGMGQAQMQLDLLGTSSWGRVVAKVDSSADETASGAWVEGRGWHQEKWTSTPERMVRGFPTNARLNEAAPDTPVYLTHASGHAAIANDAALEAAGIGPNTPDPEGGTIVRDAQERVTGVLLETAAGLVQEALDASRSGMSAADRRARRERQVRLAAEEALANGVTSFQDQGASFETIRLYREMAERGALDIRMYAMVAQGEVTPETQERLAEIRTVGAADQHLTVRAIGEVTVDGALGSRSAWMLEPYDDAPNDTGINVTPMERVREIAEIGLDEDYQIAVHAIGDRANRETLDLYASLFEAADGRGAERRWRVEHAQHLHPDDISRFADLGVMASMQAIHACSDAPYNYQRLGAQRVDQGAYLWNTLWADGAVVGNGTDVPVEKIDPLASLHCTATRQVPGTDTTFTPDETLTRRRALQSYTINNARMAFEEDVKGTLTPGKLADVTVLSENILTGPPERLREATVDYTIVGGEVAYANE,failed
15,MQFKAEARRNKLMGLWVAEVLGKSGDEANAYAAEVVKADFEEAGHEDVMRKVLGDLDGKRPEAEVRAKYEGLMAVAKAQLMDEL,not failed
16,MNENHKELISIGLTVSIVIFSLYIVHKFIPSMIWAAIIVIATYPLYTRWRKLFGNKHNTSAFLFTTLMGLLFLIPLSWLIGILIKESQLFINFLQHINKEGGAAPEFFKNIPLVGDDLIQYWDVNIGKPGNIKEFLSNLHVTLTPTSYYIKQIGVNLAHRSFQVGFTLLTLFFFYRDGDKLLLQIQHIGEYCLGDRWFRYSDRLPSALRGTVNGTIVVGIGVGILMGVCYALVGFPAPTLTGFITALAAMIPFVVPVVFIIVALILLSVGSLIGGIIVLVWGTLVMFVADHFVKPVLIGGAIQLPFLAVLFGILGGVETLGLLGLFLGPMVMVLFVTLWQEPQGHKKSSG,failed
17,MGSGAGNFLKVLLRNFDVLAGPVVSLVYPLYASVQAIETQSHADDKQWLTYWVLYSLLTLIELTFAKLIEWLPIWSYMKLILTCWLVIPYFSGAAYVYEHFVRPVFVNPRSINIWYVPKKMDIFRKPDDVLTAAEKYIAENGPDAFEKILSRADKSKRYNKHEYESYETMYGEGYQY,failed
18,MLSYDLNERLLTAVQSGDFEQALGCIMQGAQASYVSPTCGRTAVGTAAILGDAELLELLLQSCEEPELNVFHQSNTDSLEIERTPEGMEKLEWVDEFENSAENGAGSGEEDSQLYQYYAKTFETTGEFISSQCCVSCREHDPHLYDADVATPLHYAAYWGHEECVRILLEHNAPINVLNNDGYAPLHLGAGFAGVTELLIKHGALVNAKTLSDGKTALHMAIESKCAESARLLLQTNININDTDDDGETPLMAAIACSMLDVAEELVKRGARINIQDKQNHTALQYAVRGRHTQMAKLLLERGARRLASQHLLHLAVESNVKELVELLLQYGESLSVWNLKNFTPIMLAIHRGRHEMLEYLLNVAEEQRKLGLYSDVHDEGLVLFAVQQNFWVKEFSRILRVLLAKSPSARNDFYDSCAPTIVCGLIYCHTPLSRAINLHRLEVAEFLIHEGCNLAQICREHVVNELRSNCTPTRLAFARLLCNAGFQFPHKHRPLPKDWPPARLEFEREMCLLGTQPRSLQSLARLEIRRSLLRCLQTRPEVQERYLPTQERSSLGRIVDEFAIPATLKRYLSDFDELPPVRGMEPVDIPVVKWTESWD,failed
19,MVYRDDYFIRHSISVSAVIVRAWITHKYSGRDWNVKWEENLLHAVAKNYTLLQTIPPFERPFKDHQVCLEWNMGYIWNLRANRIPQCPLENDVVALLGFPYASSGENTGIVKKFPRFRNRELEATRRQRMDYPVFTVSLWLYLLHYCKANLCGILYFVDSNEMYGTPSVFLTEEGYLHIQMHLVKGEDLAVKTKFIIPLKEWFRLDISFNGGQIVVTTSIGQDLKSYHNQTISFREDFHYNDTAGYFIIGGSRYVAGIEGFFGPLKYYRLRSLHPAQIFNPLLEKQLAEQIKLYYERCAEVQEIVSVYASAAKHGGERQEACHLHNSYLDLQRRYGRPSMCRAFPWEKELKDKHPSLFQALLEMDLLTVPRNQNESVSEIGGKIFEKAVKRLSSIDGLHQISSIVPFLTDSSCCGYHKASYYLAVFYETGLNVPRDQLQGMLYSLVGGQGSERLSSMNLGYKHYQGIDNYPLDWELSYAYYSNIATKTPLDQHTLQGDQAYVETIRLKDDEILKVQTKEDGDVFMWLKHEATRGNAAAQQRLAQMLFWGQQGVAKNPEAAIEWYAKGALETEDPALIYDYAIVLFKGQGVKKNRRLALELMKKAASKGLHQAVNGLGWYYHKFKKNYAKAAKYWLKAEEMGNPDASYNLGVLHLDGIFPGVPGRNQTLAGEIFHKAAQGGHMEGTLWCSLYYITGNLETFPRDPEKAVVWAKHVAEKNGYLGHVIRKGLNAYLEGSWHEALLYYVLAAETGIEVSQTNLAHICEERPDLARRYLGVNCVWRYYNFSVFQIDAPSFAYLKMGDLYYYGHQNQSQDLELSVQMYAQAALDGDSQGFFNLALLIEEGTIIPHHILDFLEIDSTLHSNNISILQELYERCWSHSNEESFSPCSLAWLYLHLRLLWGAILHSALIYFLGTFLLSILIAWTVQYFQSVSASDPPPRPSQASPDTATSTASPAVTPAADASDQDQPTVTNNPEPRG,failed
20,MSFDRNLCKVLVADDSRLVTSSVTAILRQLDLSDIYYAYKPFEVINLCKQMHFDLVICDYNFQTQLNGFQLLEELKHAQILPAHTTFVFLTGENDHKIVRSIVDCDPDDYLLKPFNHTFFRNRLLSAMKRRSVLLPIYEKLREMDFEGVIEATDTLLPFHPEYSKLIRRYRAHAMVQNKQFSSARSEYEKLLKEDNFDWIKTALANTLIETDNLEKAQEVLESLSSKKENPYYHDEMSNMAVLSEDIPKAIKHLKQSTMLLDAGSERELVITNLSLASESYDDAVTYIKRYYEKNENTFRGGIFTKLNFVRCHLYRSLNAPSNQCFENLLFGLNPLIGEIEKNSQFKAQFALIDAHIALIRGDLKAAISQVRAVLASNQLSHFYDLYHLCVLLERCSFLSEMKSMLPRARRAIAEAQHPSIFRSQVHMLKSLEMRLQESQTKIEQIRRQITAQKSISTSAITPHFDRYFQLHDLLPHSKKICLAIVRLASLRPFEYRGEYAIYRKLEHCDRVIRNLCDNRELQSIKYNNMYQYAKQNITVSNG,failed
